These results are taken from article PMC11214410 (iScience, 2024).

For the experiment, the target named is T1, His-p97 F539A (human, UniProt P55072 1-806, F539A).
T1 construct: Homohexamer in the cryo-EM structure; also called F539A (D2); D2 mutant
Kind of experiment: cross-linking; purified p97 F539A (1.26 mg/mL) and its adaptor (0.66 mg/mL) in 50mM HEPES pH 7.5, 30mM KCl, 10, 50 or 100 μM DTSSP, 30 min room temperature; trypsin, LC-MS/MS. The conditions noted are these: both partners purified.

T1 sequence (P55072 whole entry F539A): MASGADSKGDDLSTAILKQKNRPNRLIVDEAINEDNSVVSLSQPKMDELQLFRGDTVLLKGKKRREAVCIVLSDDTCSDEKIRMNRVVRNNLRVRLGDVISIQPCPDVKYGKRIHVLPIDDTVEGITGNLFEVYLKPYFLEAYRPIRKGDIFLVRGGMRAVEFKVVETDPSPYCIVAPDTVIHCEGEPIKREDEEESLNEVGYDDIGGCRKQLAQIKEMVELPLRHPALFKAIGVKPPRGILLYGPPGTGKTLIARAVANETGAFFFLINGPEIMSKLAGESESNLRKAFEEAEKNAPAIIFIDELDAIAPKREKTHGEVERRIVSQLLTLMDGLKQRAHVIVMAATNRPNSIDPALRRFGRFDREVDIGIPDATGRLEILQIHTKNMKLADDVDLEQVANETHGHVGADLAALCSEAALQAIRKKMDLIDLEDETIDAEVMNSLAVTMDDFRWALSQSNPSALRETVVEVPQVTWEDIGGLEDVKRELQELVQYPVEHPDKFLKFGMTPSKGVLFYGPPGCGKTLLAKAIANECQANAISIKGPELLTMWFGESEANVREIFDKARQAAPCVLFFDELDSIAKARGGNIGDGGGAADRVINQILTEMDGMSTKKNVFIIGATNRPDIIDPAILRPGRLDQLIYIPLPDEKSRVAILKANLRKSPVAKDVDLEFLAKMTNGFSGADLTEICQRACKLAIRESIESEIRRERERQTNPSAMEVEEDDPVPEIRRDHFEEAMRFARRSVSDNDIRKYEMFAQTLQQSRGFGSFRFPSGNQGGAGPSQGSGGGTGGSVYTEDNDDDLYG

B1: Npl4 (untagged) (natural protein, rat, UniProt Q9ES54 1-608, looked up)
chain: MAESIIIRVQSPDGVKRITATKRETAATFLKKVAKEFGFQNNGFSVYINRNKTGEITASSSKSLHLLKIKHGDLLFLFPSSLAGPSSEMETSTSVGLKAFGAPHVVEDEIDQYLSKQDGKIYRSRDPQLCRHGPLGKCVHCVPLEPFDEDYLNHLEPPVKHMSFHAYIRKLTGGADKGKFVALENISCKIKSGCEGHLPWPNGICTKCQPSAITLNRQKYRHVDNIMFENHTVADRFLDFWRKTGNQHFGYLYGRYTEHKDIPLGIRAEVAAIYEPPQIGTQNSLELLEDPKAEVVDEIASKLGLRKVGWIFTDLVSEDTRKGTVRYSRNKDTYFLSSEECITAGDFQNKHPNICRLSPDGHFGSKFVTAVATGGPDNQVHFEGYQVSNQCMALVRDECLLPCKDAPELGYAKESSSEQYVPDVFYKDIDKFGNEITQLARPLPVEYLIIDITTTFPKDPVYTFSISQNPFPIENRDVLGETQDFHSLATYLSQNTSSVFLDTISDFHLLLFLVTNEVMPLQDSISLLLEAVRTRNEELAQTWKKSEQWATIEQLCSTVGVQLPGLHEFGAVGGSARAATSAMWACQHCTFMNQPGTGHCEMCSLPRT
notes: Npl4, untagged, expressed from pET30-Npl4; the cross-linking data were searched against rat Npl4; In the cryo-EM and cross-linking experiments Npl4 stood as part of the Ufd1/Npl4 heterodimer; source: E. coli BL21 (DE3), in lysate
B1: the binding result is reported as “binds”.
